Measured values: paper PMC3642127, “Distinguishable In Vitro Binding Mode of Monomeric TRBP and Dimeric PACT with siRNA” (PLoS ONE, 2013)
Residue numbers refer to the chain shown, from its start.

T1: PACT-WT (N-terminal His- and C-terminal myc-tagged protein activator of PKR) (human), O75569
T1 chain: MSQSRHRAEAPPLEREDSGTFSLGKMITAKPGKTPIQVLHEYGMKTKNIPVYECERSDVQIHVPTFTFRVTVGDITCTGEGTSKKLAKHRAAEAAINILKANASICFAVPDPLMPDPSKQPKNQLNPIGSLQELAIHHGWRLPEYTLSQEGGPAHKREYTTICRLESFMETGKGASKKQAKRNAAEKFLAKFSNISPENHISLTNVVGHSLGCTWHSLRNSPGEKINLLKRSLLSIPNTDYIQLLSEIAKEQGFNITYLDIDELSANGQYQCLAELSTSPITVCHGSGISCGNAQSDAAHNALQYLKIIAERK

T2: TRBP-dsRBDmt1+2 (human, UniProt Q15633 1-366, K80A;K81A;K210A;K211A)
T2 sequence: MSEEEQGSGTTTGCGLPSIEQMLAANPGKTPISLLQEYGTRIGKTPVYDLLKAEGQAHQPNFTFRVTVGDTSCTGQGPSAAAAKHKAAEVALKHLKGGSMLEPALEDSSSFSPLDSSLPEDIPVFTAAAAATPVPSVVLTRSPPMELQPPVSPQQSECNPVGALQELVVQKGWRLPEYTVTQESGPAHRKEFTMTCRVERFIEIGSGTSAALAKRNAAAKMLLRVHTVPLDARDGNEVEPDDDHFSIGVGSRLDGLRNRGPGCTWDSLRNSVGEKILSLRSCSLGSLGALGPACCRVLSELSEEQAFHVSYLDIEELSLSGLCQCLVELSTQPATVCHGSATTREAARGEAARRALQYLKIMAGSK

T3: TRBP-WT (human, UniProt Q15633 1-366)
T3 sequence: T2 sequence with A80K, A81K, A210K, A211K

T4: TRBP-ΔdsRBD3 (human, UniProt Q15633 1-292)
T4 sequence: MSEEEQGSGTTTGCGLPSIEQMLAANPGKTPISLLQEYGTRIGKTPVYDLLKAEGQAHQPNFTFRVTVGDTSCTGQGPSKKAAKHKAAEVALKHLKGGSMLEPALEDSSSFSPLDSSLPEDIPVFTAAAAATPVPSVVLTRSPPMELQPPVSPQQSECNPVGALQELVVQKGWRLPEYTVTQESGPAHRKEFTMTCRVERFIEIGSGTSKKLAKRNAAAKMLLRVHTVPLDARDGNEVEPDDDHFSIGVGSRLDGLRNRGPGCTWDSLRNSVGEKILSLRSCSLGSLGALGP

T5: TRBP-dsRBDmt2 (human, UniProt Q15633 1-366, K210A;K211A)
T5 sequence: T2 sequence with A80K, A81K

T6: TRBP-dsRBDmt1 (human, UniProt Q15633 1-366, K80A;K81A)
T6 sequence: T2 sequence with A210K, A211K

B1: PACT-WT (N-terminal His- and C-terminal myc-tagged protein activator of PKR), O75569 1-313 (natural protein)
chain: T1 chain
B2: siLuc2-153 (dsRNA)
RNA 1: UCGAAGUAUUCCGCGUACGUG
RNA 2: CGUACGCGGAAUACUUCGAUU
B3: siLuc-36 (dsRNA)
RNA 1: UCUUCCAGCGGAUAGAAUGGC
RNA 2: CAUUCUAUCCGCUGGAAGAUG

Columns and labels:
[1] = molecular target: T1, PACT-WT (N-terminal His- and C-terminal …); assay: SEC; Superdex 200 HR 10/30; purified protein (TRBP proteins 1,300 nM, 330-1,300 nM in Figure S3; PACT concentration not stated) pre-incubated with siLuc-36 siRNA (300 nM) 30 min on ice; 20 mM Tris pH 7.5, 150 mM NaCl, 2 mM EDTA, 1 mM 2-mercaptoethanol, 1 mM DTT; fractions blotted with anti-myc; details: remark: other sources report otherwise
TRBP-dsRBDmt1+2 = molecular target: T2, TRBP-dsRBDmt1+2; assay: EMSA; virtually no binding; Kd ND; EMSA: 20 mM Tris pH 7.5, 150 mM NaCl, 2 mM EDTA, 1 mM 2-mercaptoethanol, 1 mM DTT, 50 ng/ul salmon sperm DNA, 0.4 U/ul RNasin, 0.5 nM 32P-siRNA, 30 min on ice; details: protein: recombinant; tags: N-His6;C-myc; label: 32P guide strand; 2 nt 3' overhangs
TRBP-WT = molecular target: T3, TRBP-WT; assay: EMSA; complex 1 (monomer); EMSA: 20 mM Tris pH 7.5, 150 mM NaCl, 2 mM EDTA, 1 mM 2-mercaptoethanol, 1 mM DTT, 50 ng/ul salmon sperm DNA, 0.4 U/ul RNasin, 0.5 nM 32P-siRNA, 30 min on ice; details: protein: recombinant; tags: N-His6;C-myc; label: 32P guide strand; 2 nt 3' overhangs
TRBP-ΔdsRBD3 = molecular target: T4, TRBP-ΔdsRBD3; assay: EMSA; complex 1; EMSA: 20 mM Tris pH 7.5, 150 mM NaCl, 2 mM EDTA, 1 mM 2-mercaptoethanol, 1 mM DTT, 50 ng/ul salmon sperm DNA, 0.4 U/ul RNasin, 0.5 nM 32P-siRNA, 30 min on ice; details: protein: recombinant; tags: N-His6;C-myc; label: 32P guide strand; 2 nt 3' overhangs
TRBP-dsRBDmt2 = molecular target: T5, TRBP-dsRBDmt2; assay: EMSA; single-step complex; EMSA: 20 mM Tris pH 7.5, 150 mM NaCl, 2 mM EDTA, 1 mM 2-mercaptoethanol, 1 mM DTT, 50 ng/ul salmon sperm DNA, 0.4 U/ul RNasin, 0.5 nM 32P-siRNA, 30 min on ice; details: protein: recombinant; tags: N-His6;C-myc; label: 32P guide strand; 2 nt 3' overhangs
TRBP-dsRBDmt1 = molecular target: T6, TRBP-dsRBDmt1; assay: as above; details: protein: recombinant; tags: N-His6;C-myc; label: 32P guide strand; 2 nt 3' overhangs

stoichiometry N [1] | Binder | binding result (TRBP-dsRBDmt1+2) | Kd (TRBP-WT) | Kd (TRBP-ΔdsRBD3) | Kd (TRBP-dsRBDmt2) | Kd (TRBP-dsRBDmt1)
2 | B1 | – | – | – | – | –
– | B2 | no binding | 4 nM | 12 nM | 520 nM | 260 nM
– | B3 | – | 5.3 nM | 5 nM | – | –
